The results in this text go back to patent publication US10874712B2, “Methods, compounds and compositions for modulating blood brain barrier integrity and re-myelination” (University Health Network, priority 2015, dated 2020).

Entries after “also recorded” stand apart in the source; their conditions may differ.

One assay relates to b.end3 cells. Description: In vitro BBB permeability, Dextran-FITC extravasation in Boyden chamber. The assay is classed as cell-based, mouse. The note with it: b.end3 monolayer; for extravasation of Dextran-FITC in sRGMa-treated cells: 4 h pre-treatment (10 μg/mL sRGMc, 10 μg/mL C3 Transferase or 10 μM Y27632), then RGMa 18 h. On the procedure: (A) Neogenin expression was analyzed on the membrane of b.end3 cells using immunohistochemical staining and by Western blot. (B) Crystal violet staining showing the b.end3 cell monolayer, (C) Representative diagram of the boyden chamber set up and (D) BBB permeability in b.end3 cells. Serum-starved cells were incubated for 4 h with RGMa (10 μg/ml), C3 Transferase (10 μg/mL) or Y27632 (10 μM) or sRGMc (10 μg/mL) and were then incubated with sRGMa (5 μg/mL) for 18 h followed by seeding of Dextran-FITC onto the upper chamber. Extravasation was measured over a period of 60 min as described in the Examples. n=3, performed in triplicates.
b.End3 endothelial cells were used to generate an in vitro model of the human EC barrier lining the choroid plexus. Briefly, b.end3 cells were plated on polyethylene-coated 0.4 μm pore size Boyden chambers (Corning) at a density of 2×10^5 cells per well in DMEM, and were allowed to grow for 72 h to reach confluency (verified using crystal violet staining). After 72 h, cells were serum starved for 6 h and pre-treated for 4 h with 10 μg/mL sRGMc, 10 μg/mL C3 Transferase or 10 μM Y27632. RGMa was then added to the wells for 18 h. The transwells were then transferred to a new plate containing 500 μl of HBSS and 200 μl 4-KDa Dextran-FITC (25 mg/ml; Sigma-Aldrich) was added to the upper chambers. Tracer diffusion across the EC monolayer was assessed in 30 min intervals for a period of 1.5 h. FITC signal, which represented the amount of extravasation through the monolayer was analyzed with using a microplate reader.

A further assay deals with T1, Neogenin (Homo sapiens, UniProt Q92859).
T1 construct: His-tagged proteins (2.5 μg/mL of extracellular-Neogenin or sRGMa or sRGMc) were then coated onto each well; His tag (coated format); Alkaline phosphatase (AP) fusion (solution format, Ec-Neogenin-AP); made in house
T1 sequence (Q92859 34-1105 limits assumed): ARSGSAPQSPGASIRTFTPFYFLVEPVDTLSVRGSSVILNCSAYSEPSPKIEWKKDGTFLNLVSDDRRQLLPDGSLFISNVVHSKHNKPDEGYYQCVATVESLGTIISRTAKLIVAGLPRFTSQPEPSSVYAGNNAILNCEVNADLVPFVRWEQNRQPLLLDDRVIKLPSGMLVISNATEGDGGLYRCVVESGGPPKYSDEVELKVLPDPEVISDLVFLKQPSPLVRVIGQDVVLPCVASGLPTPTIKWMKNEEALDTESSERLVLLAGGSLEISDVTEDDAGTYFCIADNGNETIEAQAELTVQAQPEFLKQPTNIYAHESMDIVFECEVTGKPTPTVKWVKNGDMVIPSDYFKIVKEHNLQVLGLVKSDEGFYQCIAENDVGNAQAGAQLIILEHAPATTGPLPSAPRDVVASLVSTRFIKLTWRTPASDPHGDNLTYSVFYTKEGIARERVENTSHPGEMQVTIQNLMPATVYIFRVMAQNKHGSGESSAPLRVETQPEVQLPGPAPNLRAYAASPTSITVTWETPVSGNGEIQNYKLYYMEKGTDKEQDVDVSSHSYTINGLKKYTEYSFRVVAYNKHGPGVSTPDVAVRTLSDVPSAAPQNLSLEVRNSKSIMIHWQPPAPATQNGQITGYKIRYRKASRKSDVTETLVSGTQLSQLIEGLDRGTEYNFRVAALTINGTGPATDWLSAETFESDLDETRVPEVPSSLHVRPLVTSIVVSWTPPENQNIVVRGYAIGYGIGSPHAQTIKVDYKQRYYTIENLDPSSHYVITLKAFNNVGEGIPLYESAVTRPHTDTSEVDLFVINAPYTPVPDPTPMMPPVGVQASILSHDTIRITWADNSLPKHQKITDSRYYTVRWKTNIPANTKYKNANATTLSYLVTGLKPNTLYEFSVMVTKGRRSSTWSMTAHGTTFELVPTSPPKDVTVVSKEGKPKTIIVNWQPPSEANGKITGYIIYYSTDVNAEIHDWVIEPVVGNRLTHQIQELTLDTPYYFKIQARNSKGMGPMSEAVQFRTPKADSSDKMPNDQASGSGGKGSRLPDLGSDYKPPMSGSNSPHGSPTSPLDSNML
Description: In vitro competition binding assay (AP-tagged proteins). The settings on record: pre-incubation of sRGMa with Ec-Neogenin-AP; compared to BSA control.

The subject of assay [1] is blood brain barrier of mice. Description: BBB permeability, Texas red dye leakage by widefield imaging. The assay is classed as in vivo, mouse. The settings on record: mice injected with RGMa alone; vs vehicle. The method, then:
Mice were treated with RGMa (70 ug), RGMa (70 ug)+RGMc (70 ug), or Vehicle (1% BSA) 18 h prior to widefield imaging (100-300 ms exposure) prior to and following intravenous injection of Texas Red dye (0.5 mg) over time. […] (B) Quantification of the leakage of Texas Red dye (measured as the number of leakage sites/mm^2).
BBB integrity was assessed in mice treated with PBS (Vehicle), RGMa, RGMc, RGMa+ immunoglobulin domain of Neogenin (4Ig). Widefield imaging was then carried out under a Olympus microscope (BX6 1WI) prior to and following the injection of Texas red dye (100 uL, I.V., 5 mg/ml) using 100-300 ms exposure. Recording was performed from 0 min to 35 min following injection. Texas dye leakage was also assessed in RGMc knockout (KO) and wild type (WT) mice. The leakage of Texas-red dye was quantified by a blind experimenter measuring the number of leakage sites/mm^2. (A) Representative images of Texas red dye: PBS (Vehicle), RGMa, RGMa+RGMc and RGMa+4Ig (immunoglobulin domain of Neogenin). Quantification of the leakage of Texas Red dye in animals treated with (B) PBS (Vehicle), RGMa or RGMa+RGMc or in RGMc KO and WT mice or (C) PBS (Vehicle), RGMa, RGMa+RGMc or RGMa+4Ig.
Mice injected with BSA, RGMc, RGMa, or RGMa+RGMc. […] Leakage of Texas red dye was quantified by a blind experimenter measuring the number of leakage sites/mm^2. […]

For assay [2], the system named is Claudin 5 in b.End3 cells. Description: Claudin 5 expression in endothelial cells by Western blot. The assay is classed as cell-based, mouse. The settings on record: incubation with RGM proteins. The method, then:
Cells were pretreated for 6 h with PBS, RGMc, RGMa or RGMc+RGMa. Western blotting was performed on the lysates with Claudin-5 and GAPDH antibodies.
Next, the BBB permeability was assessed by injecting mice with BSA, RGMa, RGMa plus RGMc and subsequently followed by assessment of Texas dye leakage using widefield imaging as an indication of BBB integrity. […] Thus, Claudin 5 expression following RGMa/c treatments of murine-derived brain endothelial cells (b.End3) was studied. B.En3 cells were grown up to 80% confluency and were treated with overnight incubation with RGM proteins.
For orientation: In western blotting, separated proteins are transferred to a membrane and probed.

Description for Neogenin: (C) Binding of Neogenin to bovine serum albumin (Neogenin+BSA), to RGMa (Neogenin+RGMa), and to RGMc (Neogenin+RGMc) in RGMa-AP and in RGMc-AP. Constructs overexpressing His-tagged sRGMa, sRGMc and the extracellular domains of Neogenin (Ec-Neogenin) were coated onto Poly-L-Lysine coated wells. Alkaline Phosphatase (AP)-tagged proteins (EC-Neogenin or RGMa or RGMc) were then added to each well and incubated at 37° C. for 1 h. Each well was washed and equilibrated with AP developing buffer (100 mM NaHCO3, 1 mM MgCl2). The reaction was initiated using AP developing buffer supplemented with p-nitrophenyl phosphate and then stopped following color development by adding 50 μl (0.1M) NaOH. The absorbance of each reaction was measured using a microplate autoreader at 405 nm as described in the Examples. (D) Binding of Neogenin-AP to bovine serum albumin (Neogenin-AP+BSA), to RGMa (Neogenin-AP+RGMa), and to RGMc (Neogenin-AP+RGMc). Competition assay was performed as described in the Examples and above but in which the constructs were reversed.
Using a 96-well microtiter plate (Corning), wells coated with 100 μl (10 μg/mL) of Poly-L-Lysine (Sigma-Aldrich) incubated at 4° C. overnight were then washed 3× with 100 μl of PBST (+0.02% Tween-20). […] The absorbance of each reaction was measured using a microplate autoreader (BioTek EL311 AutoReader) at 405 nm.

Turning to C3 Transferase [reference compound], the “extravasation of Dextran-FITC in sRGMa-treated cells” value with b.end3 cells is reported as “reduced”.

`C[C@@H](N)[C@H]1CC[C@H](C(=O)Nc2ccncc2)CC1` [Y27632, reference compound]: the “extravasation of Dextran-FITC in sRGMa-treated cells” value in the assay on b.end3 cells is “reduced”.

B1: sRGMa: mouse RGMa cloned with His tag replacing the GPI-anchor, secreted soluble protein (protein)
chain: PHLRTFTDHFQTCKVQGAWPLIDNNYLNVQVTNTPVLPGSAATATSKLTIIFKNFQECVDQKVYQAEMDELPSAFADGSKNGGDKHGANSLKITEKVSGQHVEIQAKYIGTTIVVRQVGRYLTFAVRMPEEVVNAVEDRDSQGLYLCLRGCPLNQQIDFQAFRANAESPRRPAAASPSPVVPETFPYETAVAKCKEKLPVEDLYYQACVFDLLTTGDVNFTLAAYYALEDGKMLHSNKDKLHLFERTRELPGAVAAAA
modifications: left off: large carriers
notes: mouse RGMa cloned with His tag replacing the GPI-anchor, secreted soluble protein
B1: the “reduction of binding intensity of RGMc to Neogenin” value with Neogenin was determined as 3 fold. The “extravasation of Dextran-FITC” value with b.end3 cells (sRGMa alone, vs vehicle-treated wells) is listed as “increased”. Besides, the “BBB integrity, leakage of Texas Red dye” value in assay [1] is reported as “significantly disrupted BBB integrity; also recorded: significantly elevated leakage”. In assay [2], the “reduction in Claudin 5 levels” value was 2 fold.
